Assay results from doi:10.1101/2025.03.09.642192 (2025).

Key:
[1] = molecular target: T1, purified hexon protein from ChAdOx1 (chimpanzee adenovirus Y25 (ChAdOx1)); assay: SPR
T1 chain: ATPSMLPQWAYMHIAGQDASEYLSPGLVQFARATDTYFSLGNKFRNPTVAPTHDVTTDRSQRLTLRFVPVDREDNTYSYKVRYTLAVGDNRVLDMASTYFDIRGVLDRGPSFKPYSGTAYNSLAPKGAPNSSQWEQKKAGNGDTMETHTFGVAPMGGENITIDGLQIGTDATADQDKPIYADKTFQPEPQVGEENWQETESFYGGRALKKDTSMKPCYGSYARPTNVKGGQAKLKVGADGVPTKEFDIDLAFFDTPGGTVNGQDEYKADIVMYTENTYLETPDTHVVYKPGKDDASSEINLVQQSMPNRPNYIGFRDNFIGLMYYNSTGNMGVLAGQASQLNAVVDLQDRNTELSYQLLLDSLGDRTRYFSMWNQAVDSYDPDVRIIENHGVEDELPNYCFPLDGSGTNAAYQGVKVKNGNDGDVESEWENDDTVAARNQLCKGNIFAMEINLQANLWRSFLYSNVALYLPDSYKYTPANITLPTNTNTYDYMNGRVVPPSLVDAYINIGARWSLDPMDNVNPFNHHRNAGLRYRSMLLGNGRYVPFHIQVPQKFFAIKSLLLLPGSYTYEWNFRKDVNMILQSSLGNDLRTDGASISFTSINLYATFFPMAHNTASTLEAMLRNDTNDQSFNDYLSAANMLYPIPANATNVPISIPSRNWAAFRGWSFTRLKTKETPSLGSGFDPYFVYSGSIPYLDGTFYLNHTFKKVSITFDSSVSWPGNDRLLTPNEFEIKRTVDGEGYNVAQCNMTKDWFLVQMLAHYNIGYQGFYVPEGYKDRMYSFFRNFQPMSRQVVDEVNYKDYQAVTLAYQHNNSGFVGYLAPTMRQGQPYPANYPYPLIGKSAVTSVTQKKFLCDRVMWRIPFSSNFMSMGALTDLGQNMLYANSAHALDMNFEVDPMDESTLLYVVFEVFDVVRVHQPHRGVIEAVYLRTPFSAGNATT

HAdV-C5 hexon protein = molecular target: T2, HAdV-C5 hexon protein (HAdV-C5, UniProt P04133 1-952); assay: SPR
T2 chain: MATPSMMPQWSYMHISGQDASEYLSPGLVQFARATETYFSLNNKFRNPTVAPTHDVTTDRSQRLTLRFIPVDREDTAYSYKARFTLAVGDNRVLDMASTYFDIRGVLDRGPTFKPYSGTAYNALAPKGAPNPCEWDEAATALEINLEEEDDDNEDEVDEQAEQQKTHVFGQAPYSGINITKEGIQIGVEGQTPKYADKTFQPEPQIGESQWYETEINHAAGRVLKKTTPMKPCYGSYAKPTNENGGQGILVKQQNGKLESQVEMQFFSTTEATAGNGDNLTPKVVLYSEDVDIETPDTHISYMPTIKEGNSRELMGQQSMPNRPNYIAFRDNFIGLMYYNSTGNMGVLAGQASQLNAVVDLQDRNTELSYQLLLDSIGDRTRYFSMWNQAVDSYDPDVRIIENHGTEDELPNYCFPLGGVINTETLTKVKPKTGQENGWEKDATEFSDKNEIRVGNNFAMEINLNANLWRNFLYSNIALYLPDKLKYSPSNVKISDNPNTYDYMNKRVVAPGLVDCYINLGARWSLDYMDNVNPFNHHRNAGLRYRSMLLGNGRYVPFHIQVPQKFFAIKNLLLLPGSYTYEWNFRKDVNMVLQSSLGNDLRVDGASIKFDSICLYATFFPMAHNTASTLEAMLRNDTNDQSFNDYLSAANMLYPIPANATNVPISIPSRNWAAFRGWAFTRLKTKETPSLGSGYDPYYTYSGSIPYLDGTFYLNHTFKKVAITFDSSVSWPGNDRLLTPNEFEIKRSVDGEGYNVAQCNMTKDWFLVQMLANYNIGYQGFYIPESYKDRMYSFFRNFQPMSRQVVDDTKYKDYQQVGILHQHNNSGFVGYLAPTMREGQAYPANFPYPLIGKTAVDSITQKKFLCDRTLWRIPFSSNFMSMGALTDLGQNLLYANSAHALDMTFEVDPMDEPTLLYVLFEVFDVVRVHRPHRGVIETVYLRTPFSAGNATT

B1: platelet factor 4 (PF4) (natural protein)
chain: EAEEDGDLQCLCVKTTSQVRPRHITSLEVIKAGPHCPTAQLIATLKNGRKICLDLQAPLYKKIIKKLLES
koff [1]: 0.0106 s⁻¹ | koff (HAdV-C5 hexon protein): 0.0213 s⁻¹
